Results taken from publication PMC3428924.

What was measured:
[1] = molecular target: elongation factor 1B beta (eEF1Bβ) of C. fasciculata (C. fasciculata (endogenous in choanomastigotes)); assay: SEC
[2] = molecular target: elongation factor 1B alpha (eEF1Bα) of C. fasciculata (C. fasciculata (endogenous in choanomastigotes)); assay: SEC

Row | stoichiometry N [1] | stoichiometry N [2] | Substance
1 | 1 α per β |  | elongation factor 1B alpha (eEF1Bα) of C. fasciculata (natural protein)
2 | 2 γ per β | 2 γ per α | elongation factor 1B gamma (eEF1Bγ) of C. fasciculata (natural protein)
